Measurements published in CN116143917A (DONGGUAN PENGZHI BIOTECHNOLOGY CO LTD, dated 2023).

T1: D-二聚体抗原(购自菲鹏)
T1 chain 1: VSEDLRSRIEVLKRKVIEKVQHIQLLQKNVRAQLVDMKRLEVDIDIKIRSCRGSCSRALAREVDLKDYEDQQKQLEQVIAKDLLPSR
T1 chain 2: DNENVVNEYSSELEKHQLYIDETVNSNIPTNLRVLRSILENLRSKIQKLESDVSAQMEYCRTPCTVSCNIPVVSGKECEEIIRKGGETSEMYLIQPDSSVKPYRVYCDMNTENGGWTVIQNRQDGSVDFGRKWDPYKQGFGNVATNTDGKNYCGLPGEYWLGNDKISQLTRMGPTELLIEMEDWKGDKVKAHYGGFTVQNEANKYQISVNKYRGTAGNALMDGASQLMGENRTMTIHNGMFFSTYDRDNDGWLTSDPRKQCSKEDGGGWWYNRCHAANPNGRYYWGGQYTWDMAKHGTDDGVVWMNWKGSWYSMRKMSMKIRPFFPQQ
T1 chain 3: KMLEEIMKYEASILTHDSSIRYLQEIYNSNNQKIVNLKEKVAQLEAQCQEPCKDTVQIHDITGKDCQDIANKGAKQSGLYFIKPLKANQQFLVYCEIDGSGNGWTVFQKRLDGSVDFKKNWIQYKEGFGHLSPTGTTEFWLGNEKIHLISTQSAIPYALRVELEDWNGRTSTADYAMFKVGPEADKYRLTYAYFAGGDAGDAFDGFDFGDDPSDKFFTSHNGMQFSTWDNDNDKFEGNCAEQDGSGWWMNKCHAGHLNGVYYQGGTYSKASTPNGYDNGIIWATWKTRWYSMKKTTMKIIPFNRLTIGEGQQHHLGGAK


Target: T1, D-二聚体抗原(购自菲鹏)
Experiment: BLI, AMC sensor, antibody immobilised, D-dimer antigen in serial dilution

Molecule	Kd [nM]	koff [s⁻¹]	kon [M⁻¹ s⁻¹]
对照抗体 (antibody)	21.4	0.000132	6170
14D2RMb-1 (antibody, mouse IgG2a, kappa, Recombinant monoclonal antibody made in CHO cells from hybridoma genes; also called 14D2RMb-1抗体) heavy: QVQLQQSGPELVRPGVSVKISCKGSGYRFTDYSIHWLKQSHAKSLEWIGVISTYSGNPDYNQKFKGKATMTVDQSSSTAYMELARLTSDDSAIYYCSRMNDYYGDYFFDHWGQGTTLIVSSAKTTAPSVYPLAPVCGDTTGSSVTLGCLVKGYFPEPVTLTWNSGSLSSGVHTFPAVLQSDLYTLSSSVTVTSSTWPSQSITCNVAHPASSTKVDKKIEPRGPTIKPCPPCKCPAPNLLGGPSVFIFPPKIKDVLMISLSPIVTCVVVDVSEDDPDVQISWFVNNVEVHTAQTQTHREDYNSTLRVVSALPIQHQDWMSGKEFKCKVNNKDLPAPIERTISKPKGSVRAPQVYVLPPPEEEMTKKQVTLTCMVTDFMPEDIYVEWTNNGKTELNYKNTEPVLDSDGSYFMYSKLRVEKKNWVERNSYSCSVVHEGLHNHHTTKSFSRTPGK light: DVVMTQTPLSLFVDLGDPASISCRSSQSLVHTNGNTYLHWYLQKPGQSPRLLIYKVSNRFSGVPDRFSGSGSGTDFTFKISSVEAEDLGLYFCSQSRHVPLTFGAGTKLELKRADAAPTVSIFPPSSEQLTSGGASVVCFLNNFYPKDINVKWKIDGSERQNGVLNSWTDQDSKDSTYSMSSTLTLTKDEYERHNSYTCEATHKTSTSPIVKSFNRNEC	9.9	0.00545	550000
